Target: the molecule itself
Assay: crystal structure; vapor diffusion, 298 K; protein 6 mg/ml in 150 mM NaCl, 10 mM Tris-HCl, 1 mM DTT pH 7.5; reservoir 0.01 M cobalt chloride, 0.1 M sodium acetate pH 4.8, 1 M 1,6-hexanediol; 2.3 A; four monomers in the asymmetric unit

B1: Rab-binding domain of Rab11 family-interacting protein 2 (domain or fragment, Homo sapiens)
chain: GSHMSNPFDATAGYRSLTYEEVLQELVKHKELLRRKDTHIRELEDYIDNLLVRVMEETPSILRVPYEPSRKAGKFSNS
notes: not FIP2 residues by the stated limits 439-512; Expression vector pNIC-Bsa4 with a TEV protease cleavage site; tag cleaved with TEV before crystallization; In the crystal at least the first seven and the last 15 residues are disordered (monomers seen from 445-451 to 496 or 497); also called FIP2; RBD of FIP2; source: Escherichia coli BL21(DE3), purified (nickel agarose, TEV cleavage, Mono Q, …)
stoichiometry N: 4
